In assay [1] the target is T1, alpha-synuclein (natural human wildtype alpha-synuclein) (human, UniProt P37840 1-140). The assay is described as follows: BLI, ForteBio Octet QK; apparent kd. How it is done: (§1) Binding kinetic of humanized 1H7 antibodies were also measured by bio-layer interferometry (BLI) using a ForteBio Octet QK instrument (ForteBio, Menlo Park, Calif.). Detailed binding kinetic parameters (association rate, apparent ka, dissociation rate, apparent kd, and affinity constant, apparent KD) were determined for chimeric 1H7 and various humanized 1H7 antibodies (Tables 6-7, FIGS. 4A-C). Apparent ka, apparent kd and apparent KD are binding kinetic parameters obtained using ForteBio assay formats. These parameters differ from ka, kd and KD measured using Biocore assays due to, e.g., avidity effects associated with ForteBio assay formats.

The target of assay [2] is T1, alpha-synuclein (natural human wildtype …). Put plainly: BLI, ForteBio Octet QK; apparent ka. As to the method:
as §1
Background: BLI is a label-free optical method that tracks binding on a fibre tip over time.

Assay [3] shares this target. Put plainly: BLI, ForteBio Octet QK; apparent KD. As to the method: as §1

B1: Humanized 1H7 H5L4 (Hu1H7VHv5-Hu1H7VLv4) (antibody, V domains shown)
VH: QVQLVQSGAEVKKPGASVKVSCKASGYTFTSYYIHWVRQAPGQGLEWMGWIYPGSGNTKYSEKFKGRATMTADTSTSTAYMELRSLRSDDTAVYYCARDGSYGFAYWGQGTLVTVSS
VL: DIQLTQSPSSLSASVGDRVTITCKASQSVDYDGDSYMNWYQQKPGKAPKFLIYAASNLESGVPSRFSGSGSGTDFTLTISSLQPEDFATYYCQQSNEDPFTFGQGTKLEIK
Consider B1, for which, in assay [1], the dissociation rate constant (koff) came out at 0.0019 s⁻¹. In addition, the kon in assay [2] stood at 1.6e+06 M⁻¹ s⁻¹. The Kd in assay [3] stood at 1.2 nM.

In general, koff refers to a measure of how fast the partners let go of each other. As a reminder, the kon is a measure of how fast the partners come together.

(Values after patent publication US20130266517A1 (published 2013).)
